Literature values as cited in publication PMC9157009, “Protein proximity networks and functional evaluation of the casein kinase 1 gamma family reveal unique roles for CK1γ3 in WNT signaling” (The Journal of Biological Chemistry, 2022).

Test system: β-catenin-dependent transcription
Settings: siRNA screen, BAR firefly luciferase reporter, ref Biechele et al

B1: MAGI1 (protein, UniProt Q96QZ7 1-1491, looked up)
Membrane-associated guanylate …: MSKVIQKKNHWTSRVHECTVKRGPQGELGVTVLGGAEHGEFPYVGAVAAVEAAGLPGGGEGPRLGEGELLLEVQGVRVSGLPRYDVLGVIDSCKEAVTFKAVRQGGRLNKDLRHFLNQRFQKGSPDHELQQTIRDNLYRHAVPCTTRSPREGEVPGVDYNFLTVKEFLDLEQSGTLLEVGTYEGNYYGTPKPPSQPVSGKVITTDALHSLQSGSKQSTPKRTKSYNDMQNAGIVHAENEEEDDVPEMNSSFTADSGEQEEHTLQETALPPVNSSIIAAPITDPSQKFPQYLPLSAEDNLGPLPENWEMAYTENGEVYFIDHNTKTTSWLDPRCLNKQQKPLEECEDDEGVHTEELDSELELPAGWEKIEDPVYGIYYVDHINRKTQYENPVLEAKRKKQLEQQQQQQQQQQQQQQQQQQQQTEEWTEDHSALVPPVIPNHPPSNPEPAREVPLQGKPFFTRNPSELKGKFIHTKLRKSSRGFGFTVVGGDEPDEFLQIKSLVLDGPAALDGKMETGDVIVSVNDTCVLGHTHAQVVKIFQSIPIGASVDLELCRGYPLPFDPDDPNTSLVTSVAILDKEPIIVNGQETYDSPASHSSKTGKVNGMKDARPSSPADVASNSSHGYPNDTVSLASSIATQPELITVHIVKGPMGFGFTIADSPGGGGQRVKQIVDSPRCRGLKEGDLIVEVNKKNVQALTHNQVVDMLVECPKGSEVTLLVQRGGLPVPKKSPKSQPLERKDSQNSSQHSVSSHRSLHTASPSHSTQVLPEFPPAEAQAPDQTDSSGQKKPDPFKIWAQSRSMYENRPMSPSPASGLSKGEREREINSTNFGECPIPDYQEQDIFLWRKETGFGFRILGGNEPGEPIYIGHIVPLGAADTDGRLRSGDELICVDGTPVIGKSHQLVVQLMQQAAKQGHVNLTVRRKVVFAVPKTENEVPSPASSHHSSNQPASLTEEKRTPQGSQNSLNTVSSGSGSTSGIGSGGGGGSGVVSTVVQPYDVEIRRGENEGFGFVIVSSVSRPEAGTTFAGNACVAMPHKIGRIIEGSPADRCGKLKVGDRILAVNGCSITNKSHSDIVNLIKEAGNTVTLRIIPGDESSNATLLTNAEKIATITTTHTPSQQGTQETRNTTKPKQESQFEFKAPQATQEQDFYTVELERGAKGFGFSLRGGREYNMDLYVLRLAEDGPAERCGKMRIGDEILEINGETTKNMKHSRAIELIKNGGRRVRLFLKRGDGSVPEYDPSSDRHGPATGPQGVPEVRAGPDRRQHPSLESSYPPDLHKSSPHGEKRAHARDPKGSREYSRQPNEHHTWNGTSRKPDSGACRPKDRAPEGRRDAQAERAAAANGPKRRSPEKRREGTRSADNTLERREKHEKRRDVSPERRRERSPTRRRDGSPSRRRRSLERLLEQRRSPERRRGGSPERRAKSTDRRRARSPERRRERSLDKRNREDRASHREREEANLKQDAGRSSRHPPEQRRRPYKECSTDLSI
Fold over control siRNA
  Fold over control siRNA: 3.957
Raw signal per siRNA target
  Average BAR firefly Luciferase (Raw): 104670
